Measurements from the supplement of paper PMC9732359.
± gives the uncertainty stated by the source.

Assay: protein stability index of a GFP-peptide fusion (yeast GPS) (PSI 1-4); higher = more stable; sorted into four equal gates, so the index is relative within each strain
Summary of the method: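 Tiled 17-residue yeast protein peptides were fused downstream of GFP in a plasmid that also expresses Cherry, and the pooled library was carried in yeast. Mid-log cultures in leucine-free medium were sorted into four equal gates by GFP/Cherry fluorescence ratio, and plasmids from each gate were PCR-amplified and Illumina-sequenced, with reads assigned to strains by barcodes. The protein stability index for each peptide was each gate's read frequency times its gate number, summed.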

| Sequence | protein stability index (doa10∆) | protein stability index (pdr5∆) | protein stability index (san1∆) | protein stability index (ubr1∆) |
| --- | --- | --- | --- | --- |
| NLTSEIEDLRADINSNR [YOR098C/NUP1] | 2.98 ± 0.27 | 3.07 ± 0.12 | 2.83 ± 0.12 | 3.03 ± 0.084 |
| MKNPDVEFCGYSIPHPS [RPC19] | 2.81 ± 0.082 | 3.11 ± 0.064 | 2.94 ± 0.049 | 3.04 ± 0.085 |
| DEGTALSRLGLKRYCCR [RPB10] | 3.38 ± 0.11 | 3.23 ± 0.15 | 3.53 ± 0.079 | 2.79 ± 0.12 |
| NNSSITLRCSVVEACGN [YCS4] | 1.78 ± 0.064 | 1.23 ± 0.056 | 1.13 ± 0.14 | 1.25 ± 0.041 |
| RREVQIQLQEFLLSAMT [NSL1] | 1.42 ± 0.052 | 1.68 ± 0.11 | 1.47 ± 0.12 | 1.68 ± 0.063 |
| LPVASPFHSHLLVPASD [FAS1] | 1.61 ± 0.053 | 1.62 ± 0.062 | 1.98 ± 0.063 | 1.96 ± 0.044 |
| PLSAGFNYGKLPLPPSV [SIN4] | 2.75 ± 0.074 | 2.9 ± 0.068 | 2.84 ± 0.038 | 2.93 ± 0.051 |
| NNKIITLVKGPKEPRLK [SKI6] | 2.91 ± 0.2 | 2.86 ± 0.16 | – | 3.14 ± 0.081 |
| NIIEKAMDYAISIENIV [RPN12] | 3.15 ± 0.13 | 3.29 ± 0.088 | 2.96 ± 0.094 | 3.07 ± 0.071 |
| KIVVLSRTGPVFDLCWN [RRP43] | 2.07 ± 0.057 | 2.2 ± 0.048 | 2.91 ± 0.066 | 2.39 ± 0.035 |
| PKTELTKGDSTPVQPDL [YAR002W/NUP60] | 3.16 ± 0.055 | 3.14 ± 0.067 | 3.08 ± 0.072 | 3.1 ± 0.037 |
| VSPTNVMGTPLTNMMSP [PGD1] | 2.77 ± 0.1 | – | 2.92 ± 0.091 | 3.26 ± 0.093 |
| YITNADDSTKFQLVNDV [SIR3] | 3.01 ± 0.11 | 3.18 ± 0.1 | 2.94 ± 0.092 | 3.24 ± 0.071 |
| DPKLEKCLNYRNVNWIE [ITC1] | 2.96 ± 0.069 | 2.88 ± 0.09 | 2.96 ± 0.056 | 2.95 ± 0.046 |
| IGQLMAFDKHMNLVLNE [SMB1] | 2.04 ± 0.15 | 2.39 ± 0.2 | 2.72 ± 0.16 | 2.57 ± 0.051 |
| EDPDQEECSGRRWNKLC [YGL100W/SEH1] | 2.24 ± 0.07 | 2.16 ± 0.083 | 1.88 ± 0.1 | 2.27 ± 0.057 |
| QEITTNLENHFKKSKID [SCL1] | 3.12 ± 0.089 | 3.15 ± 0.08 | 3.1 ± 0.06 | 3.22 ± 0.063 |
| YGPSFTKRESLNARMFL [SIR2] | 1.85 ± 0.068 | 2.42 ± 0.049 | 2.22 ± 0.08 | 1.65 ± 0.036 |
| FDKLLNIPRRELKINLP [SRB4] | 2.57 ± 0.074 | 2.6 ± 0.053 | 2.74 ± 0.071 | 2.12 ± 0.061 |
| IGIDPPRGVLLYGPPGT [RPT3] | 3.04 ± 0.088 | 2.58 ± 0.1 | 2.89 ± 0.081 | 2.74 ± 0.073 |
| MSDTEAPVEVQEDFEVV [RPS5] | 3.23 ± 0.1 | 3.24 ± 0.15 | 3.35 ± 0.078 | 3.09 ± 0.086 |
| PNCLFILKLLNGFMESA [SOH1] | 1.9 ± 0.17 | 1.54 ± 0.12 | 1.68 ± 0.18 | 1.44 ± 0.18 |
| TFSQESGLMVILYTSKI [RRI2] | 2.78 ± 0.076 | 3.05 ± 0.084 | 2.6 ± 0.085 | 2.94 ± 0.053 |
| YNVKNIIQGRKNFDMLN [PCI8] | 2.51 ± 0.035 | 2.52 ± 0.037 | 2.72 ± 0.039 | 2.58 ± 0.028 |
| MLHKVLENKADPLVSLM [RPT6] | 2.28 ± 0.08 | 2.15 ± 0.063 | 2.71 ± 0.058 | 2.23 ± 0.066 |
| YDIVKFLTVSKLWAEII [GRR1] | 2.05 ± 0.041 | 2.59 ± 0.038 | 2.18 ± 0.048 | 2.44 ± 0.032 |
| TNKENNIVDSSAAGNKA [YIL149C/MLP2] | 2.18 ± 0.061 | 2.44 ± 0.057 | 2.87 ± 0.041 | 2.92 ± 0.036 |

| Sequence | protein stability index (doa10∆) | protein stability index (pdr5∆) | protein stability index (san1∆) | protein stability index (ubr1∆) |
| --- | --- | --- | --- | --- |
| ALAYAGTGNNSAVKRLL [RPN2] | 2.68 ± 0.1 | 2.71 ± 0.1 | 2.28 ± 0.14 | 3.26 ± 0.1 |
| ANVQRLKEYQSKIIVFP [RPL13A] | 2.93 ± 0.076 | 3.03 ± 0.093 | 3.05 ± 0.092 | 3 ± 0.067 |
| KDMSPILGELKRVKSYM [LRP1] | 2.43 ± 0.062 | 2.74 ± 0.056 | 2.51 ± 0.059 | 2.97 ± 0.038 |
| KRCLFESLSNEAALKAN [RPO31] | – | – | – | 2.84 ± 0.22 |
| SISGFKEALLGQLLKDH [ARP9] | 2.01 ± 0.19 | 2.29 ± 0.092 | 1.89 ± 0.08 | 2.26 ± 0.068 |
| NINNNINSTKNGKDNNN [MED2] | 3.28 ± 0.068 | 3.26 ± 0.053 | 3.24 ± 0.045 | 3.35 ± 0.041 |
| GELEQAQAWINLGEYYA [RPN7] | 3.58 ± 0.28 | 3.03 ± 0.098 | 3.33 ± 0.1 | 3.26 ± 0.057 |
| VRATFRNNLPAKTFGAS [RPL33A] | 2.85 ± 0.097 | 3.05 ± 0.16 | 3.2 ± 0.11 | 3.31 ± 0.098 |
| NIVMDSKQNGIEQSITK [SSN8] | 3.08 ± 0.16 | 2.59 ± 0.28 | 2.61 ± 0.18 | 3.15 ± 0.12 |
| GAMGLLSSAGAKSTVET [RIP1] | 2.01 ± 0.12 | 2.46 ± 0.11 | 2.14 ± 0.18 | 2.35 ± 0.09 |
| MSETLPRSDDLEATWNF [CDC53] | 3.05 ± 0.17 | 3.39 ± 0.15 | – | 2.81 ± 0.15 |
| MIQPPQQGQNMSEQQWR [ROX3] | 2.15 ± 0.082 | 2.38 ± 0.06 | 2.39 ± 0.093 | 2.19 ± 0.033 |
| ESLKKELQIFKTANSSS [YIL149C/MLP2] | 2.78 ± 0.065 | 2.93 ± 0.049 | 2.9 ± 0.059 | 2.61 ± 0.042 |
| SLAPEADLDSLIIRNDS [RPT3] | 2.92 ± 0.11 | 3.01 ± 0.08 | 2.77 ± 0.055 | 2.82 ± 0.071 |
| LARGHRVEKIPEIPLVV [RPL4A] | – | 3.42 ± 0.25 | – | – |
| KIPSASIWGNGYSGYGN [SNF5] | 3.25 ± 0.1 | 3.27 ± 0.11 | 3.42 ± 0.095 | 3.3 ± 0.05 |
| LVEEFMLLANISVARKI [DIS3] | 1.3 ± 0.062 | 1.84 ± 0.092 | 1.77 ± 0.16 | 2.18 ± 0.055 |
| NKSSVRPTGGANMATVP [MED6] | 2.69 ± 0.063 | 2.79 ± 0.074 | 2.71 ± 0.1 | 2.83 ± 0.057 |
| ESKDLLRASFNKLSSIL [SRB4] | 1.08 ± 0.097 | 1.33 ± 0.074 | 1.22 ± 0.16 | 1.1 ± 0.094 |
| IFEKELMYQIKKECALL [SRB4] | 2.87 ± 0.28 | 3.2 ± 0.21 | 2.61 ± 0.26 | 3.44 ± 0.19 |
| LTKLNEDDLVGVVQMVT [TAF14] | 2.89 ± 0.086 | 3.18 ± 0.074 | 3.02 ± 0.065 | 2.98 ± 0.063 |
| DLQNLNLNTDKLKNNAS [YJL039C/NUP192] | 2.54 ± 0.11 | 2.65 ± 0.061 | 2.94 ± 0.086 | 2.5 ± 0.057 |
| RSMIEHARTAAVTHNLY [PUP2] | 2.16 ± 0.13 | 2.98 ± 0.22 | 2.46 ± 0.13 | 2.67 ± 0.083 |
| TDLEKKHLWDQKSLAAL [RPC17] | 2.86 ± 0.11 | 2.98 ± 0.062 | 2.94 ± 0.081 | 3.02 ± 0.059 |
| NLTYSSGLFVDVKKRTY [RPB2] | 2.31 ± 0.052 | 2.58 ± 0.051 | 2.4 ± 0.071 | 2 ± 0.031 |
| DSIPLRITNSFYSTNSQ [RPN9] | 2.56 ± 0.14 | 2.65 ± 0.13 | 2.58 ± 0.18 | 2.9 ± 0.21 |
| NITDNLFQELSKVVDDM [GRR1] | 2.69 ± 0.067 | 2.62 ± 0.083 | 2.28 ± 0.07 | 2.81 ± 0.098 |
